“Also recorded” adds a separate entry of the source.

Data set [1] in a line: Maximum tolerated dose (MTD) in mice. The data set is classed as in vivo. The following applies: for Murine single dose MTD (IP): mice, loadings as in Table 3. The text has this:
(§1) All injections were given intraperitoneally (IP). […] The MTD is the maximum tolerated equivalent camptothecin dose.

In the next data set the test system is B16 melanoma (B-16-F0). Description: Tumor growth delay (TGD), subcutaneous B16 melanoma in C57BL/6 mice. The data set is classed as in vivo, murine. The following applies: for relative anti-tumor efficacy (comparison in words): B16 model. The procedure: (§2) Tumors were produced in the […] of the right interscapular region by subcutaneously injecting 1.0×10^5 murine melanoma cells (B-16-F0; ATTC CRL-6322) in a volume of 0.2 ml PBS supplemented with 2% FBS. […] Camptothecin conjugates were dissolved in a 0.1 M Na2HPO4 solution by sonication at 45° C. for 45–60 minutes. Native camptothecins were dissolved in a mixture of 8.3% Cremophor EL/8.3% ethanol in 0.75% saline. All injections were given intraperitoneally (IP). Each treatment group consisted of 10 mice randomly allocated to each group. Tumor volume was calculated according to the formula (length×width×height)/2. Mice with tumors equal to or greater than 2000 mm^3 were euthenized by cervical dislocation. Tumor efficacy of test compounds was determined by calculating the tumor growth delay (TGD): the average time in days for the tumors in the treatment group to reach a fixed volume minus the average time for the tumors in the control group to reach the same volume. An unpaired Student's t-test was done to determine statistical differences. The compounds were tested at different concentrations to determine their MTD. The MTD is the maximum tolerated equivalent camptothecin dose.

The subject of data set [2] is HT-29 human colon carcinomas. Description: Tumor growth delay, HT-29 xenografts in athymic ncr nu/nu mice. The following applies: for TGD (days to 500 mm^3) HT-29: PG 50 kD. The procedure:
as §2
(§3) In addition to the above-mentioned models, one other syngeneic model was used viz. LL/2 Lewis lung (ATTC CRL-1642) and 2 xenogeneic models were used viz. human NCI-H460 lung carcinomas (ATTC HTB-177) and HT-29 human colon carcinomas (ATTC HTB-38). In these xenogeneic models instead of immunocompetent C57BL/6 mice, immunocompromised athymic ncr nu/nu mice were used. Except for the number of tumor cells implanted to generate tumors the experimental protocol and procedures were identical to that for the B-16/F0 model.

A further data set relates to animal tumor models. Description: General comparison of PG-camptothecin conjugates in animal tumor models. The arrangement: species or system mice. The following applies: mouse, in vivo.
Description: as §1

Data set [3] is described as follows: Aqueous solubility of PG-camptothecin conjugates. Conditions: for Aqueous solubility: % CPT in conjugate (w/w): PG-CPT 14, PG-gly-CPT 37, PG-(10-OAc-CPT) 13, PG-(10-O-CPT) 13, PG-gly-(10-O-CPT) 20, PG-(10-OH-CPT) 19, PG-(9-NH-CPT) 14.
Data set [4] deals with NCI-H460 human non-small cell lung cancer xenografts. Put plainly: NCI-H460 xenografts in female nude mice, dosing every 4th day x4. The data set is classed as in vivo. The procedure:
Female nude mice with 7–8 mm subcutaneous NCI-H460 human non-small cell lung cancer xenografts were treated with PG-gly-CPT on days 1, 5, 9, and 13 at a dose of 40 mg/kg 20(S)-camptothecin per injection. The tested dose of 40 mg eq. […] Although there were no deaths, weight loss was approximately 20% of the starting weight. The absolute tumor growth delay (defined as difference in days for tumors to grow from 8 mm to 12 mm between the treated and the control groups) was 43 days for the PG-gly-CPT treated mice.

For data set [5], the system named is human NCI-H460 lung carcinomas. Put plainly: Tumor growth delay, NCI-H460 xenografts in athymic ncr nu/nu mice. It is filed as in vivo. The following applies: PG 50 kD. The procedure: as §2, §3
For data set [6], the system named is NCI-H322 human lung cancer. Description: NCI-H322 human lung cancer s.c. in female nude mice. The following applies: 33 kD, 37% loaded, i.v. days 9, 13, 17, 21 at 40 mg/kg 20(S)-camptothecin equivalent. The data set is classed as in vivo. The procedure: The antitumor activity of PG-gly-CPT (33 kD, 37% loaded) on NCI-H322 (ATTC CRL-5806) human lung cancer inoculated s.c. in female nude mice was studied. The drug was injected i.v. on days 9, 13, 17 and 21 at a 20(S)-camptothecin equivalent dose of 40 mg/kg when tumors measured 7–8 mm in diameter. The TGD was 40 days.

The subject of data set [7] is NCI-H1299 human lung cancer cells. Put plainly: NCI-H1299 human lung cancer s.c. in female nude mice. Conditions: 30 mg eq. 20(S)-camptothecin every 4th day x4.
Description: 20(S)-camptothecin/kg in the prior experiment in nude mice, the dose was lowered to 30 mg eq. 20(S)-camptothecin every 4th day×4.
Where [8] appears, read: Table 4, PG 50 kD (PG-CPT: 33 kD).
Where [9] appears, read: second experiment, i.p., same schedule.
The mark [10] stands for this setting: CPT loading 33%, dose 38 mg CPT/kg.
[11] abbreviates: CPT loading 39%, dose 40 mg CPT/kg.
Where [12] appears, read: CPT loading 47%, dose 40 mg CPT/kg.
Setting [13] is: CPT loading 19%, dose 33 mg CPT/kg.
The mark [14] stands for this setting: 40 mg eq. 20(S)-camptothecin/kg every 4th day x4.
[15] abbreviates: CPT loading 30%, dose 34 mg CPT/kg.

For PG-(2-O-acetyl)-CPT, the MTD result in data set [1] (setting [8]) is reported as “≧80 mg CPT/kg”. Moreover, the “TGD (days to 500 mm^3) B16” value with B16 melanoma (B-16-F0) (CPT loading 15%, dose 80 mg CPT/kg, PG 50 kD) was determined as 3.8 days.
Turning to PG-(4-NH-butyryl)-CPT, the MTD entry in [1] (setting [8]) was “≧80 mg CPT/kg”. In the data set on B16 melanoma (B-16-F0) (CPT loading 32%, dose 80 mg CPT/kg, PG 50 kD), the “TGD (days to 500 mm^3) B16” value is reported as 0.9 days.
PG-(4-O-butyryl)-CPT showed an MTD in data set [1] (setting [8]) of about 36 mg CPT/kg. The “TGD (days to 500 mm^3) HT-29” value in data set [2] (CPT loading 24%, dose 36 mg CPT/kg) is reported as 13.1 days. The “TGD (days to 500 mm^3) B16” value in the data set on B16 melanoma (B-16-F0) (CPT loading 32%, dose 37 mg CPT/kg, PG 50 kD) turned out to be 2.8 days.
For the substance PG-(9-NH-CPT), the “overall efficacy, tolerability and solubility (in words)” value in the data set on animal tumor models is “active”. Besides, the MTD in data set [1] (mouse, in vivo) was > 25 mg eq. 20(S)-9-aminocamptothecin/kg. Also, the “Murine single dose MTD (IP)” value in [1] was over 25 mg eq. CPT/kg. Also, the Aqueous solubility (commonly the concentration that dissolves in the medium under given conditions) in data set [3] stood at 7000 µg/mL.
With PG-(10-O-CPT), in data set [1], the “Murine single dose MTD (IP)” value was 50 mg eq. CPT/kg. The substance further registered an Aqueous solubility in data set [3] of 10000 µg/mL.
In the case of PG-(10-OAc-CPT), in data set [1], the “Murine single dose MTD (IP)” value is recorded as 10–20 mg eq. CPT/kg. For the same substance, in data set [3], the “aqueous solubility / solution behaviour (in words)” value is on record as “solution was very viscous” and the Aqueous solubility is 10000 µg/mL. Moreover, the “time after which the compound precipitated out of solution” value in [3] (dosing solution) is given as “approx. 30 min”. Besides, the TGD in the data set with B16 melanoma (B-16-F0) (50 mg eq. 20(S)-10-hydroxycamptothecin/kg, p<0.01 compared to control) was 5.3 days. Besides, the “relative anti-tumor efficacy (comparison in words)” value (“relative anti-tumor efficacy” for short) in the data set with B16 melanoma (B-16-F0) is given as “appeared more active at 50 mg eq. 20(S)-10-hydroxycamptothecin/kg than PG-gly-(10-O-CPT)”.
Regarding PG-(10-OH-CPT), the “Murine single dose MTD (IP)” value in [1] was over 50 mg eq. CPT/kg. Besides, the Aqueous solubility in data set [3] is over 10000 µg/mL. The “relative anti-tumor efficacy” value in the data set with B16 melanoma (B-16-F0) is reported as “not as effective as the PG-(10-OAc-CPT) or the PG-gly-(10-OH-CPT)”.
As for PG-(β-ala)-CPT, in data set [1] (setting [8]), the MTD entry was “≧67 mg CPT/kg”. Further, the “TGD (days to 500 mm^3) B16” value in the data set on B16 melanoma (B-16-F0) (CPT loading 31%, dose 67 mg CPT/kg, PG 50 kD) came out at 1.1 days.
As for PG-(γ-glu)-CPT, the MTD entry in data set [1] (setting [8]) is reported as “≧54 mg CPT/kg”. Further, the “TGD (days to 500 mm^3) B16” value with B16 melanoma (B-16-F0) (CPT loading 21%, dose 54 mg CPT/kg, PG 50 kD) is 0.8 days.
Take PG-CPT: the MTD result in data set [1] (setting [8]) was “≧80 mg CPT/kg”. For the same substance, the “Murine single dose MTD (IP)” value in [1] is 60–80 mg eq. CPT/kg. Further, in [4] (setting [9]), the toxicity observations entry is reported as “without observable toxicity” and the “tumor growth delay” value is “substantial growth delay”. In the data set on B16 melanoma (B-16-F0) (CPT loading 20%, dose 80? mg CPT/kg, PG 33 kD), the “TGD (days to 500 mm^3) B16” value amounted to 4.0 days.
For the substance PG-ala-CPT, in data set [1] (setting [8]), the MTD result is “≧73 mg CPT/kg”. In addition, the “TGD (days to 500 mm^3) B16” value in the data set on B16 melanoma (B-16-F0) (CPT loading 20%, dose 73 mg CPT/kg, PG 50 kD) is listed as 2.2 days.
On to PG-gly-(10-O-CPT), for which, in [3], the Aqueous solubility was over 10000 µg/mL.
For the substance PG-gly-(10-OH-CPT), the “relative anti-tumor efficacy” value in the data set on B16 melanoma (B-16-F0) is “approximately twice as efficacious as PG-gly-(7-Et-10-OH-CPT)”.
In the case of PG-gly-CPT, the “TGD (days to 500 mm^3) NCI-H460” value was found to be 15.8 days in data set [5] (setting [10]), 38.5 days in data set [5] (setting [11]) and 6.5 days in data set [5] (setting [12]). For the same substance, the “MTD in male ncr nu/nu mice” value in data set [1] (PG 50 kD, (mono) glycine linker, 35–37% 20(S)-camptothecin) is listed as 40 mg/kg 20(S)-camptothecin equivalents. The substance further displayed an MTD in data set [1] (setting [8]) of about 40 mg CPT/kg. Also, the “Murine single dose MTD (IP)” value in [1] is given as 60–80 mg eq. CPT/kg. In addition, the TGD is 40 days in [6] and 32 days in data set [7]. The “TGD (days to 500 mm^3) HT-29” value is 4.1 days in [2] (setting [13]); 11.9 days in [2] (CPT loading 33%, dose 33 mg CPT/kg); 20.3 days in data set [2] (setting [10]); 25.8 days in data set [2] (setting [11]); 5.8 days in [2] (setting [12]). The “tolerability of repeated dosing” value in data set [2] (ip, 4 times with a weekly interval, total dose 3 times the single dose) is “very well tolerated”. Also, the toxicity observations result in [4] (setting [14]) was “no deaths; also recorded: modestly exceeded the MTD”. Besides, the “weight loss, of the starting weight” value in data set [4] (setting [14]) is listed as “approximately 20%”. In data set [4] (40 mg/kg 20(S)-camptothecin per injection, days 1, 5, 9, 13), the “absolute tumor growth delay (tumors to grow from 8 mm to 12 mm, treated vs control)” value was 43 days. Moreover, the tolerability result in data set [7] was “well-tolerated”. In addition, the “TGD (days to 500 mm^3) B16” value in the data set on B16 melanoma (B-16-F0) (CPT loading 32%, dose 35 mg CPT/kg, PG 50 kD) is 3.3 days.
For the substance PG-gly-gly-CPT, in data set [1] (setting [8]), the MTD result is recorded as “≧33 mg CPT/kg”. In addition, the “TGD (days to 500 mm^3) HT-29” value in [2] (setting [13]) is reported as 4.5 days.
Take PG-gly-gly-gly-CPT: in data set [5] (setting [15]), the “TGD (days to 500 mm^3) NCI-H460” value is on record as 38.5 days. Moreover, in [1] (setting [8]), the MTD result is “≦34 mg CPT/kg”. In addition, the “TGD (days to 500 mm^3) HT-29” value was 6.9 days in data set [2] (setting [13]) and 28.4 days in [2] (setting [15]).

The values are drawn from patent publication US7173041B2, “Polyglutamic acid-camptothecin conjugates and methods of preparation” (priority 2000, dated 2007).
